Here are results for 7 molecules from US20190382481A1 (Janssen / Centocor, published 2019).

The chains are these.
B1: C3CB16 (bispecific antibody, human IgG4 S228P, lambda, F234A L235A)
heavy 1: not shown
light 1: not shown
heavy 2: EVQLVESGGGLVQPGGSLRLSCAASGFTFNTYAMNWVRQAPGKGLEWVARIRSKYNNYATYYAASVKGRFTISRDDSKNSLYLQMNSLKTEDTAVYYCARHGNFGNSYVSWFAYWGQGTLVTVSSASTKGPSVFPLAPCSRSTSESTAALGCLVKDYFPEPVTVSWNSGALTSGVHTFPAVLQSSGLYSLSSVVTVPSSSLGTKTYTCNVDHKPSNTKVDKRVESKYGPPCPPCPAPEAAGGPSVFLFPPKPKDTLMISRTPEVTCVVVDVSQEDPEVQFNWYVDGVEVHNAKTKPREEQFNSTYRVVSVLTVLHQDWLNGKEYKCKVSNKGLPSSIEKTISKAKGQPREPQVYTLPPSQEEMTKNQVSLTCLVKGFYPSDIAVEWESNGQPENNYKTTPPVLDSDGSFLLYSKLTVDKSRWQEGNVFSCSVMHEALHNHYTQKSLSLSLGK
light 2: QTVVTQEPSLTVSPGGTVTLTCRSSTGAVTTSNYANWVQQKPGQAPRGLIGGTNKRAPGTPARFSGSLLGGKAALTLSGVQPEDEAEYYCALWYSNLWVFGGGTKLTVLGQPKAAPSVTLFPPSSEELQANKATLVCLISDFYPGAVTVAWKADSSPVKAGVETTTPSKQSNNKYAASSYLSLTPEQWKSHRSYSCQVTHEGSTVEKTVAPTECS
B2: C3CB87 (bispecific antibody, human IgG4 S228P, kappa, lambda, F234A L235A)
heavy 1: not shown
light 1: not shown
heavy 2: EVQLVESGGGLVQPGGSLRLSCAASGFTFNTYAMNWVRQAPGKGLEWVARIRSKYNNYATYYAASVKGRFTISRDDSKNSLYLQMNSLKTEDTAVYYCARHGNFGNSYVSWFAYWGQGTLVTVSSASTKGPSVFPLAPCSRSTSESTAALGCLVKDYFPEPVTVSWNSGALTSGVHTFPAVLQSSGLYSLSSVVTVPSSSLGTKTYTCNVDHKPSNTKVDKRVESKYGPPCPPCPAPEAAGGPSVFLFPPKPKDTLMISRTPEVTCVVVDVSQEDPEVQFNWYVDGVEVHNAKTKPREEQFNSTYRVVSVLTVLHQDWLNGKEYKCKVSNKGLPSSIEKTISKAKGQPREPQVYTLPPSQEEMTKNQVSLTCLVKGFYPSDIAVEWESNGQPENNYKTTPPVLDSDGSFLLYSKLTVDKSRWQEGNVFSCSVMHEALHNHYTQKSLSLSLGK
light 2: QTVVTQEPSLTVSPGGTVTLTCRSSTGAVTTSNYANWVQQKPGQAPRGLIGGTNKRAPGTPARFSGSLLGGKAALTLSGVQPEDEAEYYCALWYSNLWVFGGGTKLTVLGQPKAAPSVTLFPPSSEELQANKATLVCLISDFYPGAVTVAWKADSSPVKAGVETTTPSKQSNNKYAASSYLSLTPEQWKSHRSYSCQVTHEGSTVEKTVAPTECS
B3: C3CB5 (bispecific antibody, human IgG4 S228P, lambda, F234A L235A)
heavy 1: not shown
light 1: SYELTQPPSVSVSPGQTASITCSGDKLGDKYVCWYQQKPGQSPVVVIHQDRKRPSGIPERFSGSNFGNTATLTISGTQAMDEADYYCQAWDSSTVVFGGGTKLTVLGQPKAAPSVTLFPPSSEELQANKATLVCLISDFYPGAVTVAWKADSSPVKAGVETTTPSKQSNNKYAASSYLSLTPEQWKSHRSYSCQVTHEGSTVEKTVAPTECS
heavy 2: EVQLVESGGGLVQPGGSLRLSCAASGFTFNTYAMNWVRQAPGKGLEWVARIRSKYNNYATYYAASVKGRFTISRDDSKNSLYLQMNSLKTEDTAVYYCARHGNFGNSYVSWFAYWGQGTLVTVSSASTKGPSVFPLAPCSRSTSESTAALGCLVKDYFPEPVTVSWNSGALTSGVHTFPAVLQSSGLYSLSSVVTVPSSSLGTKTYTCNVDHKPSNTKVDKRVESKYGPPCPPCPAPEAAGGPSVFLFPPKPKDTLMISRTPEVTCVVVDVSQEDPEVQFNWYVDGVEVHNAKTKPREEQFNSTYRVVSVLTVLHQDWLNGKEYKCKVSNKGLPSSIEKTISKAKGQPREPQVYTLPPSQEEMTKNQVSLTCLVKGFYPSDIAVEWESNGQPENNYKTTPPVLDSDGSFLLYSKLTVDKSRWQEGNVFSCSVMHEALHNHYTQKSLSLSLGK
light 2: QTVVTQEPSLTVSPGGTVTLTCRSSTGAVTTSNYANWVQQKPGQAPRGLIGGTNKRAPGTPARFSGSLLGGKAALTLSGVQPEDEAEYYCALWYSNLWVFGGGTKLTVLGQPKAAPSVTLFPPSSEELQANKATLVCLISDFYPGAVTVAWKADSSPVKAGVETTTPSKQSNNKYAASSYLSLTPEQWKSHRSYSCQVTHEGSTVEKTVAPTECS
B4: C3CB91 (bispecific antibody, human IgG4 S228P, lambda, F234A L235A)
heavy 1: not shown
light 1: SYELTQPPSVSVSPGQTASITCSGDNLGNEHVCWYHQKPGQSPVLVIYQNNKRPSGIPERFSGSNSGNTATLSISGTQATDEADYYCQAWDSTTAVFGGGTKLTVLGQPKAAPSVTLFPPSSEELQANKATLVCLISDFYPGAVTVAWKADSSPVKAGVETTTPSKQSNNKYAASSYLSLTPEQWKSHRSYSCQVTHEGSTVEKTVAPTECS
heavy 2: EVQLVESGGGLVQPGGSLRLSCAASGFTFNTYAMNWVRQAPGKGLEWVARIRSKYNNYATYYAASVKGRFTISRDDSKNSLYLQMNSLKTEDTAVYYCARHGNFGNSYVSWFAYWGQGTLVTVSSASTKGPSVFPLAPCSRSTSESTAALGCLVKDYFPEPVTVSWNSGALTSGVHTFPAVLQSSGLYSLSSVVTVPSSSLGTKTYTCNVDHKPSNTKVDKRVESKYGPPCPPCPAPEAAGGPSVFLFPPKPKDTLMISRTPEVTCVVVDVSQEDPEVQFNWYVDGVEVHNAKTKPREEQFNSTYRVVSVLTVLHQDWLNGKEYKCKVSNKGLPSSIEKTISKAKGQPREPQVYTLPPSQEEMTKNQVSLTCLVKGFYPSDIAVEWESNGQPENNYKTTPPVLDSDGSFLLYSKLTVDKSRWQEGNVFSCSVMHEALHNHYTQKSLSLSLGK
light 2: QTVVTQEPSLTVSPGGTVTLTCRSSTGAVTTSNYANWVQQKPGQAPRGLIGGTNKRAPGTPARFSGSLLGGKAALTLSGVQPEDEAEYYCALWYSNLWVFGGGTKLTVLGQPKAAPSVTLFPPSSEELQANKATLVCLISDFYPGAVTVAWKADSSPVKAGVETTTPSKQSNNKYAASSYLSLTPEQWKSHRSYSCQVTHEGSTVEKTVAPTECS
B5: C3CB90 (bispecific antibody, human IgG4 S228P, lambda, F234A L235A)
heavy 1: not shown
light 1: SYELTQPPSVSVSPGQTASITCSGDELGDMYACWYQQKPGQSPLVVIYQDSKRPSGIPERFSGSNSGNTATLTISGTQAMDEAAYYCQTWDTRIAVFGGGTNLTVLGQPKAAPSVTLFPPSSEELQANKATLVCLISDFYPGAVTVAWKADSSPVKAGVETTTPSKQSNNKYAASSYLSLTPEQWKSHRSYSCQVTHEGSTVEKTVAPTECS
heavy 2: EVQLVESGGGLVQPGGSLRLSCAASGFTFNTYAMNWVRQAPGKGLEWVARIRSKYNNYATYYAASVKGRFTISRDDSKNSLYLQMNSLKTEDTAVYYCARHGNFGNSYVSWFAYWGQGTLVTVSSASTKGPSVFPLAPCSRSTSESTAALGCLVKDYFPEPVTVSWNSGALTSGVHTFPAVLQSSGLYSLSSVVTVPSSSLGTKTYTCNVDHKPSNTKVDKRVESKYGPPCPPCPAPEAAGGPSVFLFPPKPKDTLMISRTPEVTCVVVDVSQEDPEVQFNWYVDGVEVHNAKTKPREEQFNSTYRVVSVLTVLHQDWLNGKEYKCKVSNKGLPSSIEKTISKAKGQPREPQVYTLPPSQEEMTKNQVSLTCLVKGFYPSDIAVEWESNGQPENNYKTTPPVLDSDGSFLLYSKLTVDKSRWQEGNVFSCSVMHEALHNHYTQKSLSLSLGK
light 2: QTVVTQEPSLTVSPGGTVTLTCRSSTGAVTTSNYANWVQQKPGQAPRGLIGGTNKRAPGTPARFSGSLLGGKAALTLSGVQPEDEAEYYCALWYSNLWVFGGGTKLTVLGQPKAAPSVTLFPPSSEELQANKATLVCLISDFYPGAVTVAWKADSSPVKAGVETTTPSKQSNNKYAASSYLSLTPEQWKSHRSYSCQVTHEGSTVEKTVAPTECS
B6: C3CB89 (bispecific antibody, human IgG4 S228P, kappa, lambda, F234A L235A)
heavy 1: not shown
light 1: not shown
heavy 2: EVQLVESGGGLVQPGGSLRLSCAASGFTFNTYAMNWVRQAPGKGLEWVARIRSKYNNYATYYAASVKGRFTISRDDSKNSLYLQMNSLKTEDTAVYYCARHGNFGNSYVSWFAYWGQGTLVTVSSASTKGPSVFPLAPCSRSTSESTAALGCLVKDYFPEPVTVSWNSGALTSGVHTFPAVLQSSGLYSLSSVVTVPSSSLGTKTYTCNVDHKPSNTKVDKRVESKYGPPCPPCPAPEAAGGPSVFLFPPKPKDTLMISRTPEVTCVVVDVSQEDPEVQFNWYVDGVEVHNAKTKPREEQFNSTYRVVSVLTVLHQDWLNGKEYKCKVSNKGLPSSIEKTISKAKGQPREPQVYTLPPSQEEMTKNQVSLTCLVKGFYPSDIAVEWESNGQPENNYKTTPPVLDSDGSFLLYSKLTVDKSRWQEGNVFSCSVMHEALHNHYTQKSLSLSLGK
light 2: QTVVTQEPSLTVSPGGTVTLTCRSSTGAVTTSNYANWVQQKPGQAPRGLIGGTNKRAPGTPARFSGSLLGGKAALTLSGVQPEDEAEYYCALWYSNLWVFGGGTKLTVLGQPKAAPSVTLFPPSSEELQANKATLVCLISDFYPGAVTVAWKADSSPVKAGVETTTPSKQSNNKYAASSYLSLTPEQWKSHRSYSCQVTHEGSTVEKTVAPTECS
B7: C3CB11 (bispecific antibody, human IgG4 S228P, lambda, F234A L235A)
heavy 1: not shown
light 1: SYELTQPPSVSVSPGQTASITCSGDKLGDKYACWYQQKPGQSPVLVIYQDGKRPSGIPERFSGSNFGNKATLTISGTQAMDEADYYCQAWDRNTVVFGGGTKLTVLGQPKAAPSVTLFPPSSEELQANKATLVCLISDFYPGAVTVAWKADSSPVKAGVETTTPSKQSNNKYAASSYLSLTPEQWKSHRSYSCQVTHEGSTVEKTVAPTECS
heavy 2: EVQLVESGGGLVQPGGSLRLSCAASGFTFNTYAMNWVRQAPGKGLEWVARIRSKYNNYATYYAASVKGRFTISRDDSKNSLYLQMNSLKTEDTAVYYCARHGNFGNSYVSWFAYWGQGTLVTVSSASTKGPSVFPLAPCSRSTSESTAALGCLVKDYFPEPVTVSWNSGALTSGVHTFPAVLQSSGLYSLSSVVTVPSSSLGTKTYTCNVDHKPSNTKVDKRVESKYGPPCPPCPAPEAAGGPSVFLFPPKPKDTLMISRTPEVTCVVVDVSQEDPEVQFNWYVDGVEVHNAKTKPREEQFNSTYRVVSVLTVLHQDWLNGKEYKCKVSNKGLPSSIEKTISKAKGQPREPQVYTLPPSQEEMTKNQVSLTCLVKGFYPSDIAVEWESNGQPENNYKTTPPVLDSDGSFLLYSKLTVDKSRWQEGNVFSCSVMHEALHNHYTQKSLSLSLGK
light 2: QTVVTQEPSLTVSPGGTVTLTCRSSTGAVTTSNYANWVQQKPGQAPRGLIGGTNKRAPGTPARFSGSLLGGKAALTLSGVQPEDEAEYYCALWYSNLWVFGGGTKLTVLGQPKAAPSVTLFPPSSEELQANKATLVCLISDFYPGAVTVAWKADSSPVKAGVETTTPSKQSNNKYAASSYLSLTPEQWKSHRSYSCQVTHEGSTVEKTVAPTECS

The target in the first test is T1, human CD33 (human, UniProt P20138 18-364). Briefly: cell-based or functional assay.
T1 sequence (P20138 18-364 limits assumed): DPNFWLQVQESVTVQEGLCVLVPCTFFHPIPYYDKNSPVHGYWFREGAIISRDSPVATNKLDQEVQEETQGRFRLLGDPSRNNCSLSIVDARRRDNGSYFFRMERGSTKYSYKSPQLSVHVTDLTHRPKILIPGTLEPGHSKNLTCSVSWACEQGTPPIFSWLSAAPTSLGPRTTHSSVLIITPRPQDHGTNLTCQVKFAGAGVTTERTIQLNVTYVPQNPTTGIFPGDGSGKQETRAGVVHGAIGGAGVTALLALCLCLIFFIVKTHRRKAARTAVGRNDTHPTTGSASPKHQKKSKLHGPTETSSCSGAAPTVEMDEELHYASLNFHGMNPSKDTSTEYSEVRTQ
Consider B1, for which the “Cytotoxicity EC50 (nM), T-cell mediated cytotoxicity of MOLM-13” value (“Cytotoxicity EC50 (nM)” for short) is 0.667 nM.

For B2, the “Cytotoxicity EC50 (nM)” value was 0.067 nM.

Consider B3, for which the “Cytotoxicity EC50 (nM)” value was determined as 1.26 nM.

Consider B4, for which the “Cytotoxicity EC50 (nM)” value was determined as 0.35 nM.

As to B5, the “Cytotoxicity EC50 (nM)” value was 10.6 nM.

Take B6: the “Cytotoxicity EC50 (nM)” value is 0.41 nM.

A further test has as its target T1, human CD33. Briefly: cell-based or functional assay. The source holds these as a separate data set.
As to B7, the “Primary AML Cell Killing EC50 (nM), ex vivo AML patient whole blood” value came to 3.96 nM.
